{"source": "paper PMC12212138", "about": "“Crystal structure and mutagenesis of a nucleic acid–binding BRCT domain in human PARP4”", "key": {"[1]": {"biological_target": "T1, PARP4 BRCT-WGR-CAT WT (human, UniProt Q9UKK3 1-573)", "T1 sequence": "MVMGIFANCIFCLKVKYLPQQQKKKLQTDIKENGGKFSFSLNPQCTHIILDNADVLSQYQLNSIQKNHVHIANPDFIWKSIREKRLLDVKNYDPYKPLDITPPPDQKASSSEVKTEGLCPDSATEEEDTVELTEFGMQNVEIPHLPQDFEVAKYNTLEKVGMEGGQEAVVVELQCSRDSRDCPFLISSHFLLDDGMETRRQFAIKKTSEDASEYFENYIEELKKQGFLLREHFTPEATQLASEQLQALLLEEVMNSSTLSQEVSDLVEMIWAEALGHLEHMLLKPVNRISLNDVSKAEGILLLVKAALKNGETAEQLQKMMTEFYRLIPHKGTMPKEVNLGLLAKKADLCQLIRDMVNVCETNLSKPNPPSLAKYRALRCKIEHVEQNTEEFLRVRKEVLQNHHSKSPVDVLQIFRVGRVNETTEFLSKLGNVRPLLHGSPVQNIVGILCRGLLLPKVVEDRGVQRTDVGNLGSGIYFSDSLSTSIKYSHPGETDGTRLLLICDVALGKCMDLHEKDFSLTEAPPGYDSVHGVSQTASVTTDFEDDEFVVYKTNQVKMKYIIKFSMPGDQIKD", "assay": "FP; 15 nM probe; FP: 50 mM Tris pH 7.5, 50 mM NaCl, 1 mM MgCl2, 0.05% NP40, 2 mM DTT, 5% glycerol, 25 ug/ml BSA, room temp 30 min; EMSA: 50 mM Tris pH 7.5, 50 mM NaCl, 4% Ficoll PM400, 0.05% NP40, 2 mM DTT, 0-18 uM protein, room temp 30 min, gel at 4 C", "details": "protein: recombinant, tags: N-terminal His-SUMO removed by TEV"}, "[2]": {"biological_target": "T1, PARP4 BRCT-WGR-CAT WT", "assay": "EMSA; 20 nM probe; FP: 50 mM Tris pH 7.5, 50 mM NaCl, 1 mM MgCl2, 0.05% NP40, 2 mM DTT, 5% glycerol, 25 ug/ml BSA, room temp 30 min; EMSA: 50 mM Tris pH 7.5, 50 mM NaCl, 4% Ficoll PM400, 0.05% NP40, 2 mM DTT, 0-18 uM protein, room temp 30 min, gel at 4 C", "details": "protein: recombinant; tags: N-terminal His-SUMO removed by TEV; label: 5'-6-FAM; single strand, predicted fold"}, "[3]": {"biological_target": "T2, PARP4 BRCT WT (human, UniProt Q9UKK3 1-100)", "T2 sequence": "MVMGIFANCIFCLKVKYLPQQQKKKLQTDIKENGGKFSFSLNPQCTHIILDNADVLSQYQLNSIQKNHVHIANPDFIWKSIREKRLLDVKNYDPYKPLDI", "assay": "FP; 3 nM probe; FP: 50 mM Tris pH 7.5, 50 mM NaCl, 1 mM MgCl2, 0.05% NP40, 2 mM DTT, 5% glycerol, 25 ug/ml BSA, room temp 30 min; EMSA: 50 mM Tris pH 7.5, 50 mM NaCl, 4% Ficoll PM400, 0.05% NP40, 2 mM DTT, 0-18 uM protein, room temp 30 min, gel at 4 C", "details": "protein: recombinant; tags: N-terminal His-SUMO removed by TEV; label: 5'-6-FAM; predicted intramolecular fold"}}, "data": [{"binder": "Probe 1 (dsRNA) RNA 1: GGCUGGCUUUAGCUCAGCGG RNA 2: CCGCGGGCGCUCUCCAGCCCUCUU", "values": [{"measurement": "Kd", "setting": "[1]; label: 5'-6-FAM on strand 1, two-strand partial duplex", "result": "25 ± 10", "unit": "µM"}]}, {"binder": "GUCAUCAAACCACCUCUCUGGGUUGUUCGAGAC (structured_RNA)", "note": "[Probe 2]", "values": [{"measurement": "Kd", "setting": "[1]; label: 5'-6-FAM, single strand, predicted fold", "result": "44 ± 13", "unit": "µM"}, {"measurement": "Kd", "setting": "[2]", "result": "11 ± 3", "unit": "µM"}]}, {"binder": "vtRNA1-1 (structured_RNA) RNA: GGCUGGCUUUAGCUCAGCGGUUACUUCGACAGUUCUUUAAUUGAAACAAGCAACCUGUCUGGGUUGUUCGAGACCCGCGGGCGCUCUCCAGUCCUUUU", "values": [{"measurement": "Kd", "setting": "[3]", "result": "13 ± 4", "unit": "µM"}]}, {"binder": "vtRNA1-2 (structured_RNA) RNA: GGCUGGCUUUAGCUCAGCGGUUACUUCGAGUACAUUGUAACCACCUCUCUGGGUGGUUCGAGACCCGCGGGUGCUUUCCAGCUCUUUU", "values": [{"measurement": "Kd", "setting": "[3]", "result": "20 ± 5", "unit": "µM"}]}]}
